Results on 7 variants are retold here after IntAct's records for PubMed 25416956.

Sequences and labels used below:
B1: EF-hand domain-containing protein 1 (Homo sapiens), Q5JVL4 (parent)
chain: MVSNPVHGLPFLPGTSFKDSTKTAFHRSQTLSYRNGYAIVRRPTVGIGGDRLQFNQLSQAELDELASKAPVLTYGQPKQAPPADFIPAHVAFDKKVLKFDAYFQEDVPMSTEEQYRIRQVNIYYYLEDDSMSVIEPVVENSGILQGKLIKRQRLAKNDRGDHYHWKDLNRGINITIYGKTFRVVDCDQFTQVFLESQGIELNPPEKMALDPYTELRKQPLRKYVTPSDFDQLKQFLTFDKQVLRFYAIWDDTDSMYGECRTYIIHYYLMDDTVEIREVHERNDGRDPFPLLMNRQRVPKVLVENAKNFPQCVLEISDQEVLEWYTAKDFIVGKSLTILGRTFFIYDCDPFTRRYYKEKFGITDLPRIDVSKREPPPVKQELPPYNGFGLVEDSAQNCFALIPKAPKKDVIKMLVNDNKVLRYLAVLESPIPEDKDRRFVFSYFLATDMISIFEPPVRNSGIIGGKYLGRTKVVKPYSTVDNPVYYGPSDFFIGAVIEVFGHRFIILDTDEYVLKYMESNAAQYSPEALASIQNHVRKREAPAPEAESKQTEKDPGVQELEALIDTIQKQLKDHSCKDNIREAFQIYDKEASGYVDRDMFFKICESLNVPVDDSLVKELIRMCSHGEGKINYYNFVRAFSN
B2: Lipopolysaccharide-induced tumor necrosis factor-alpha factor (Homo sapiens), Q99732 (parent)
chain: MSVPGPYQAATGPSSAPSAPPSYEETVAVNSYYPTPPAPMPGPTTGLVTGPDGKGMNPPSYYTQPAPIPNNNPITVQTVYVQHPITFLDRPIQMCCPSCNKMIVSQLSYNAGALTWLSCGSLCLLGCIAGCCFIPFCVDALQDVDHYCPNCRALLGTYKRL
partner: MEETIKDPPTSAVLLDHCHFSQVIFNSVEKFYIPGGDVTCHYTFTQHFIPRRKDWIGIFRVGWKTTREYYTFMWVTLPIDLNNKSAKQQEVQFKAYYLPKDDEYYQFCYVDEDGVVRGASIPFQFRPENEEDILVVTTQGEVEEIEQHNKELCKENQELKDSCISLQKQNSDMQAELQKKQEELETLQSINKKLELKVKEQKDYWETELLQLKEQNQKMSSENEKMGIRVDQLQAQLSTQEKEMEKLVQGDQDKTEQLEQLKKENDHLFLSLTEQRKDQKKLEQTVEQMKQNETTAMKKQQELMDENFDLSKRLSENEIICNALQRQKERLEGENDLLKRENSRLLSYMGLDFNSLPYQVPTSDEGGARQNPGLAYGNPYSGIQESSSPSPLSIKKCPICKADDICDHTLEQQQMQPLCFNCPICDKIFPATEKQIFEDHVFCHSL
B3: X-linked retinitis pigmentosa GTPase regulator (Homo sapiens), Q92834 (parent)
chain: MREPEELMPDSGAVFTFGKSKFAENNPGKFWFKNDVPVHLSCGDEHSAVVTGNNKLYMFGSNNWGQLGLGSKSAISKPTCVKALKPEKVKLAACGRNHTLVSTEGGNVYATGGNNEGQLGLGDTEERNTFHVISFFTSEHKIKQLSAGSNTSAALTEDGRLFMWGDNSEGQIGLKNVSNVCVPQQVTIGKPVSWISCGYYHSAFVTTDGELYVFGEPENGKLGLPNQLLGNHRTPQLVSEIPEKVIQVACGGEHTVVLTENAVYTFGLGQFGQLGLGTFLFETSEPKVIENIRDQTISYISCGENHTALITDIGLMYTFGDGRHGKLGLGLENFTNHFIPTLCSNFLRFIVKLVACGGCHMVVFAAPHRGVAKEIEFDEINDTCLSVATFLPYSSLTSGNVLQRTLSARMRRRERERSPDSFSMRRTLPPIEGTLGLSACFLPNSVFPRCSERNLQESVLSEQDLMQPEEPDYLLDEMTKEAEIDNSSTVESLGETTDILNMTHIMSLNSNEKSLKLSPVQKQKKQQTIGELTQDTALTENDDSDEYEEMSEMKEGKACKQHVSQGIFMTQPATTIEAFSDEEVGNDTGQVGPQADTDGEGLQKEVYRHENNNGVDQLDAKEIEKESDGGHSQKESEAEEIDSEKETKLAEIAGMKDLREREKSTKKMSPFFGNLPDRGMNTESEENKDFVKKRESCKQDVIFDSERESVEKPDSYMEGASESQQGIADGFQQPEAIEFSSGEKEDDEVETDQNIRYGRKLIEQGNEKETKPIISKSMAKYDFKCDRLSEIPEEKEGAEDSKGNGIEEQEVEANEENVKVHGGRKEKTEILSDDLTDKAEDHEFSKTEELKLEDVDEEINAENVESKKKTVGDDESVPTGYHSKTEGAERTNDDSSAETIEKKEKANLEERAICEYNENPKGYMLDDADSSSLEILENSETTPSKDMKKTKKIFLFKRVPSINQKIVKNNNEPLPEIKSIGDQIILKSDNKDADQNHMSQNHQNIPPTNTERRSKSCTIL
partner: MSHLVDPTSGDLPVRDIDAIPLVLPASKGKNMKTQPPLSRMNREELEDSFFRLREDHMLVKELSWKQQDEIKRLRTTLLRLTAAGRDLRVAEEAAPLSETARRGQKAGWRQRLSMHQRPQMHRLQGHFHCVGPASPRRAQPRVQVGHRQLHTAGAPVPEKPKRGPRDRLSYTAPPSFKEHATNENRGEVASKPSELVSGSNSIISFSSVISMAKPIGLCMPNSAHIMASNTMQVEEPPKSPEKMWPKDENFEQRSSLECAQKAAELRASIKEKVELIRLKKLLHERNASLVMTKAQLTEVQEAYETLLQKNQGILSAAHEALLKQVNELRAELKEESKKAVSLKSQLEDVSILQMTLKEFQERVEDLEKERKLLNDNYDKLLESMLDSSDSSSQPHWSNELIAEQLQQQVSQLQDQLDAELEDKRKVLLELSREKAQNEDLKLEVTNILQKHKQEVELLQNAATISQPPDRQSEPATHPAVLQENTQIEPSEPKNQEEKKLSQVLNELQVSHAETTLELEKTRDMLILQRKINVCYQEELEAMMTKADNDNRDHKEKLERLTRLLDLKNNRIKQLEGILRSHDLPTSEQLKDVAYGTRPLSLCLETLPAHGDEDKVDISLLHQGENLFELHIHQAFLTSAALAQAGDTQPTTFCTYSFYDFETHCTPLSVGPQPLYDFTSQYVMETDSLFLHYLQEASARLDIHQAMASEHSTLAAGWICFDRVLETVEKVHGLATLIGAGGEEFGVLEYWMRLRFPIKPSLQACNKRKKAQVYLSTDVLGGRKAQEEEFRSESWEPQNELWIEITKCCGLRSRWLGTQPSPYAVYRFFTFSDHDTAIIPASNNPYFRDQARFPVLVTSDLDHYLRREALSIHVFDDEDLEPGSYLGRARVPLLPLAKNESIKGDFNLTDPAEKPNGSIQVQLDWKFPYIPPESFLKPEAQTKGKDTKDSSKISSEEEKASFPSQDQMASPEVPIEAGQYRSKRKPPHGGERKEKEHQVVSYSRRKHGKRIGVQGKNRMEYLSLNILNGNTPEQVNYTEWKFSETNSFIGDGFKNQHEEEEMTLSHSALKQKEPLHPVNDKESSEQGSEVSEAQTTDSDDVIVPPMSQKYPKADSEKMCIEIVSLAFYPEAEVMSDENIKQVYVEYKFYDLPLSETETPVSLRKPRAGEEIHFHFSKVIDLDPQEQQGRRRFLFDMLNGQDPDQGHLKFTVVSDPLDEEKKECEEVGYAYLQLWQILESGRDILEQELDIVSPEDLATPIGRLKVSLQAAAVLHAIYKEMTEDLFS
B4: Proton-coupled zinc antiporter SLC30A8 (Homo sapiens), Q8IWU4 (parent)
chain: MEFLERTYLVNDKAAKMYAFTLESVELQQKPVNKDQCPRERPEELESGGMYHCHSGSKPTEKGANEYAYAKWKLCSASAICFIFMIAEVVGGHIAGSLAVVTDAAHLLIDLTSFLLSLFSLWLSSKPPSKRLTFGWHRAEILGALLSILCIWVVTGVLVYLACERLLYPDYQIQATVMIIVSSCAVAANIVLTVVLHQRCLGHNHKEVQANASVRAAFVHALGDLFQSISVLISALIIYFKPEYKIADPICTFIFSILVLASTITILKDFSILLMEGVPKSLNYSGVKELILAVDGVLSVHSLHIWSLTMNQVILSAHVATAASRDSQVVRREIAKALSKSFTMHSLTIQMESPVDQDPDCLFCEDPCD
partner: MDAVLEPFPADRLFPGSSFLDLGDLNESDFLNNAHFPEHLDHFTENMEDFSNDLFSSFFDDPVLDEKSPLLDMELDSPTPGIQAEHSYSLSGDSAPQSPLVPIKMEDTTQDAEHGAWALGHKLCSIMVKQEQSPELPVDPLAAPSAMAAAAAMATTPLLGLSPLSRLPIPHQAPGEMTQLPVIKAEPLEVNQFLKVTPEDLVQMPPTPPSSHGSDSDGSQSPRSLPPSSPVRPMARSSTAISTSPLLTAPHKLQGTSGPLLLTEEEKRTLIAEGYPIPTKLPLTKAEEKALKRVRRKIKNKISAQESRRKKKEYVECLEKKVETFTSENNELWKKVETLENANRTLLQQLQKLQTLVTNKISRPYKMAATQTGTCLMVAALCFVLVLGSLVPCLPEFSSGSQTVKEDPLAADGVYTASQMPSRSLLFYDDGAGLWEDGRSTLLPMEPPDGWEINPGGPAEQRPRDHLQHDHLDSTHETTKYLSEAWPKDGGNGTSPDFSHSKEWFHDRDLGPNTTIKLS
B5: TERF1-interacting nuclear factor 2 (Homo sapiens), Q9BSI4 (parent)
chain: MATPLVAGPAALRFAAAASWQVVRGRCVEHFPRVLEFLRSLRAVAPGLVRYRHHERLCMGLKAKVVVELILQGRPWAQVLKALNHHFPESGPIVRDPKATKQDLRKILEAQETFYQQVKQLSEAPVDLASKLQELEQEYGEPFLAAMEKLLFEYLCQLEKALPTPQAQQLQDVLSWMQPGVSITSSLAWRQYGVDMGWLLPECSVTDSVNLAEPMEQNPPQQQRLALHNPLPKAKPGTHLPQGPSSRTHPEPLAGRHFNLAPLGRRRVQSQWASTRGGHKERPTVMLFPFRNLGSPTQVISKPESKEEHAIYTADLAMGTRAASTGKSKSPCQTLGGRALKENPVDLPATEQKENCLDCYMDPLRLSLLPPRARKPVCPPSLCSSVITIGDLVLDSDEEENGQGEGKESLENYQKTKFDTLIPTLCEYLPPSGHGAIPVSSCDCRDSSRPL

The variants in the first assay derive from B1. To be noted: with itf2_human TCF4, P15884.
itf2_human TCF4, P15884, sequence (P15884 whole entry): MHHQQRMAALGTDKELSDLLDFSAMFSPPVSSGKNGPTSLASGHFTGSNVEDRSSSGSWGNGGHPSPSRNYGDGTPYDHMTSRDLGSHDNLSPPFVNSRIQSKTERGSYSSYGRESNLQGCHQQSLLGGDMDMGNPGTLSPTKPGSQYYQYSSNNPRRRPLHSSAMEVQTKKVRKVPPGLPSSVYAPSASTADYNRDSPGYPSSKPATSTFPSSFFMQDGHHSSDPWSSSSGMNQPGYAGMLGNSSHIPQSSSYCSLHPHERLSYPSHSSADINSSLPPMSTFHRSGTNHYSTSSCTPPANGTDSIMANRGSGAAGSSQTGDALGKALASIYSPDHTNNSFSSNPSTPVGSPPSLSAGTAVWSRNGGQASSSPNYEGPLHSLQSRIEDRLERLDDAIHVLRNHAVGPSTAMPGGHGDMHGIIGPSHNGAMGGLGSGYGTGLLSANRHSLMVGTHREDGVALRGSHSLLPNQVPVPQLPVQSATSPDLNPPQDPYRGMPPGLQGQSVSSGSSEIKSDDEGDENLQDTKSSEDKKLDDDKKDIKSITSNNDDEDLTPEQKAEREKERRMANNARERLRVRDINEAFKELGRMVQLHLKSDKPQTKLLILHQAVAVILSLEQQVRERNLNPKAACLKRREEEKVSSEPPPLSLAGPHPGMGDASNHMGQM
Regarding P77T, the “effect of a mutation on the interaction” value is “disrupting interaction”.

In another assay the parent is B1. Conditions: with ikzf3_human IKZF3, Q9UKT9.
ikzf3_human IKZF3, Q9UKT9, sequence (Q9UKT9 whole entry): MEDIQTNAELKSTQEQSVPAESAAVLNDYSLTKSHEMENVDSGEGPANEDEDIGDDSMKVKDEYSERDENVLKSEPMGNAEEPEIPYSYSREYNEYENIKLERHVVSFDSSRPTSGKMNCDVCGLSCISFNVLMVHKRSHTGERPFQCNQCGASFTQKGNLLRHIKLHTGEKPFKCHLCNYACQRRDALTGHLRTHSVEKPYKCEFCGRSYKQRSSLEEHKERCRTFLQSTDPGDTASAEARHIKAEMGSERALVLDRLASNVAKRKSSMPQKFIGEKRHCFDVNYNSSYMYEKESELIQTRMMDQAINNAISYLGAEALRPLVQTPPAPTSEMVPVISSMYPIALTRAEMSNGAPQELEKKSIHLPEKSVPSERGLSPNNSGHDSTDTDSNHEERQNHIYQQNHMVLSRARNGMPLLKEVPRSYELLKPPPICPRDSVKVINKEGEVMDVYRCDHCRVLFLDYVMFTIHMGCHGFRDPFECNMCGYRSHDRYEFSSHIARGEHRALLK
Take P77T: the “effect of a mutation on the interaction” value is recorded as “disrupting interaction”.

In a further assay the parent is B2. Conditions: with caco2_human CALCOCO2, Q13137.
Regarding G112S, the “effect of a mutation on the interaction” value is listed as “disrupting interaction”.

Variants of B2 are the subject of another assay. Conditions: with caco2_human CALCOCO2, Q13137. The source holds these as a separate data set.
Consider A111G, for which the “effect of a mutation on the interaction” value is recorded as “disrupting interaction”.

A further assay covers variants of B3. To be noted: with rpgr1_human RPGRIP1, Q96KN7.
Turning to T255I, the “effect of a mutation on the interaction” value was “disrupting interaction”.

The variants in the next assay derive from B3. To be noted: with rpgr1_human RPGRIP1, Q96KN7. The source holds these as a separate data set.
For the variant H98Q, the “effect of a mutation on the interaction” value is listed as “disrupting interaction”.

Another assay covers variants of B4. Conditions: with cr3l1_human CREB3L1, Q96BA8.
With E276W, the “effect of a mutation on the interaction” value is “disrupting interaction”.

The variants in another assay derive from B5. To be noted: with acd_human ACD.
As to P236S, the “effect of a mutation on the interaction” value is “disrupting interaction”.
